Source: patent US20170283497A1 (CELLECTIS, published 2017)

Molecular target: Tyrosine-protein kinase transmembrane receptor ROR1 (human, UniProt Q01973 30-937)
Experiment: cell-based or functional assay

Sequence of Tyrosine-protein kinase transmembrane receptor ROR1 (Q01973 30-937): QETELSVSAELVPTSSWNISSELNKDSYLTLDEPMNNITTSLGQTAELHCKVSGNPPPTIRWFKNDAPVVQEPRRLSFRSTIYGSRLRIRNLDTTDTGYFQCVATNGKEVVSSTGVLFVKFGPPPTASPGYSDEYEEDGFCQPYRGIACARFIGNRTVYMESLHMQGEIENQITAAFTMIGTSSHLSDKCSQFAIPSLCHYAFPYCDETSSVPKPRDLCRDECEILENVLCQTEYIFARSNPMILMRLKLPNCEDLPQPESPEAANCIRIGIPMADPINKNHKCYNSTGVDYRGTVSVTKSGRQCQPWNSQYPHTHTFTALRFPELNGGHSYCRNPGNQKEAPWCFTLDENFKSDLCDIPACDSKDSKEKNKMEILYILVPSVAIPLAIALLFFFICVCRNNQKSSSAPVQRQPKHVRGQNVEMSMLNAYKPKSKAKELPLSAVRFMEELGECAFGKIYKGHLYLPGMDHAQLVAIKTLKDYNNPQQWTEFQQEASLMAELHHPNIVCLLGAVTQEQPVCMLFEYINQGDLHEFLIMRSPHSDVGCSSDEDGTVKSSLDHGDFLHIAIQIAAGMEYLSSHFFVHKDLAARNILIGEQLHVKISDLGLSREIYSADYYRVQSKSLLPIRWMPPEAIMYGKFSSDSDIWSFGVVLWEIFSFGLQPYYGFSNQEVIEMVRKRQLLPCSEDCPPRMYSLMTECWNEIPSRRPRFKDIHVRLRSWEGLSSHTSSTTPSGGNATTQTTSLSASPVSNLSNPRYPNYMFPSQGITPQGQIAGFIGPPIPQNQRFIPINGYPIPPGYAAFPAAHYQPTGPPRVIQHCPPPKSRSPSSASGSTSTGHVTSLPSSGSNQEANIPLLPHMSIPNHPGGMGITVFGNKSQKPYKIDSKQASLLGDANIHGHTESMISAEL

B1: D10-v1 scCAR (other)
chain: QVQLKESGPGLVAPSQTLSITCTVSGFSLTSYGVHWVRQPPGKGLEWLGVIWAGGFTNYNSALKSRLSISKDNSKSQVLLKMTSLQTDDTAMYYCARRGSSYSMDYWGQGTSVTVSSGGGGSGGGGSGGGGSEIVLSQSPAITAASLGQKVTITCSASSNVSYIHWYQQRSGTSPRPWIYEISKLASGVPVRFSGSGSGTSYSLTISSMEAEDAAIYYCQQWNYPLITFGSGTKLEIQGLAVSTISSFFPPGYQIYIWAPLAGTCGVLLLSLVITLYCKRGRKKLLYIFKQPFMRPVQTTQEEDGCSCRFPEEEEGGCELRVKFSRSADAPAYQQGQNQLYNELNLGRREEYDVLDKRRGRDPEMGGKPRRKNPQEGLYNELQKDKMAEAYSEIGMKGERRRGKGHDGLYQGLSTATKDTYDALHMQALPPR
Question: With B1 as the binder, how does the “degranulation of scCAR-modified T cells (primary screening)” value (“degranulation … (primary screening)” for short) read?
Answer: ≥ 20%

B2: D10-v3 scCAR (other)
chain: QVQLKESGPGLVAPSQTLSITCTVSGFSLTSYGVHWVRQPPGKGLEWLGVIWAGGFTNYNSALKSRLSISKDNSKSQVLLKMTSLQTDDTAMYYCARRGSSYSMDYWGQGTSVTVSSGGGGSGGGGSGGGGSEIVLSQSPAITAASLGQKVTITCSASSNVSYIHWYQQRSGTSPRPWIYEISKLASGVPVRFSGSGSGTSYSLTISSMEAEDAAIYYCQQWNYPLITFGSGTKLEIQTTTPAPRPPTPAPTIASQPLSLRPEACRPAAGGAVHTRGLDFACDIYIWAPLAGTCGVLLLSLVITLYCKRGRKKLLYIFKQPFMRPVQTTQEEDGCSCRFPEEEEGGCELRVKFSRSADAPAYQQGQNQLYNELNLGRREEYDVLDKRRGRDPEMGGKPRRKNPQEGLYNELQKDKMAEAYSEIGMKGERRRGKGHDGLYQGLSTATKDTYDALHMQALPPR
Question: What does the source list for B2?
Answer: cytotoxic activity of scCAR-modified T cells, specific lysis of PC-3 cells: > 20%; degranulation of scCAR-modified T cells (primary screening): ≥ 20%; degranulation of scCAR-modified T cells (secondary screening): ≥ 20%; production of IFNγ by scCAR-modified T cells: ≥ 1500 pg/mL

B3: D10-v5 scCAR (other)
chain: QVQLKESGPGLVAPSQTLSITCTVSGFSLTSYGVHWVRQPPGKGLEWLGVIWAGGFTNYNSALKSRLSISKDNSKSQVLLKMTSLQTDDTAMYYCARRGSSYSMDYWGQGTSVTVSSGGGGSGGGGSGGGGSEIVLSQSPAITAASLGQKVTITCSASSNVSYIHWYQQRSGTSPRPWIYEISKLASGVPVRFSGSGSGTSYSLTISSMEAEDAAIYYCQQWNYPLITFGSGTKLEIQEPKSPDKTHTCPPCPAPPVAGPSVFLFPPKPKDTLMIARTPEVTCVVVDVSHEDPEVKFNWYVDGVEVHNAKTKPREEQYNSTYRVVSVLTVLHQDWLNGKEYKCKVSNKALPAPIEKTISKAKGQPREPQVYTLPPSRDELTKNQVSLTCLVKGFYPSDIAVEWESNGQPENNYKTTPPVLDSDGSFFLYSKLTVDKSRWQQGNVFSCSVMHEALHNHYTQKSLSLSPGKIYIWAPLAGTCGVLLLSLVITLYCKRGRKKLLYIFKQPFMRPVQTTQEEDGCSCRFPEEEEGGCELRVKFSRSADAPAYQQGQNQLYNELNLGRREEYDVLDKRRGRDPEMGGKPRRKNPQEGLYNELQKDKMAEAYSEIGMKGERRRGKGHDGLYQGLSTATKDTYDALHMQALPPR
Question: Which “cytotoxic activity of scCAR-modified T cells, specific lysis of PC-3 cells” value does the source give for B3 here?
Answer: > 20%

Question: And the “degranulation … (primary screening)” value?
Answer: ≥ 20%

Question: And the “degranulation of scCAR-modified T cells (secondary screening)” value?
Answer: ≥ 20%

Question: What about the “production of IFNγ by scCAR-modified T cells” value of the same binder?
Answer: ≥ 1500 pg/mL

B4: H10-v3 scCAR (other)
chain: EVKLVESGGGLVKPGGSLKLSCAASGFTFSSYAMSWVRQTPEKRLEWVASISTGASAYFPDSVKGRFTISRDNARNILYLQMSSLRSEDTAMYYCARITTSTWYFDVWGAGTTVTVSSGGGGSGGGGSGGGGSDIKMTQSPSSMYASLGERVTITCKASQDINSYLSWFQQKPGKSPKTLIYRANRLVDGVPSRFSGSGSGQDYSLTISSLEYEDMGIYYCLQYDEFPYTFGGGTKLEIKTTTPAPRPPTPAPTIASQPLSLRPEACRPAAGGAVHTRGLDFACDIYIWAPLAGTCGVLLLSLVITLYCKRGRKKLLYIFKQPFMRPVQTTQEEDGCSCRFPEEEEGGCELRVKFSRSADAPAYQQGQNQLYNELNLGRREEYDVLDKRRGRDPEMGGKPRRKNPQEGLYNELQKDKMAEAYSEIGMKGERRRGKGHDGLYQGLSTATKDTYDALHMQALPPR
Question: For B4, which “cytotoxic activity of scCAR-modified T cells, specific lysis of PC-3 cells” value is on record?
Answer: > 20%

Question: What about the “degranulation … (primary screening)” value of the same binder?
Answer: ≥ 20%

Question: And the “degranulation of scCAR-modified T cells (secondary screening)” value?
Answer: ≥ 20%

Question: What about the “production of IFNγ by scCAR-modified T cells” value of the same binder?
Answer: ≥ 1500 pg/mL

B5: H10-v1 scCAR (other)
chain: EVKLVESGGGLVKPGGSLKLSCAASGFTFSSYAMSWVRQTPEKRLEWVASISTGASAYFPDSVKGRFTISRDNARNILYLQMSSLRSEDTAMYYCARITTSTWYFDVWGAGTTVTVSSGGGGSGGGGSGGGGSDIKMTQSPSSMYASLGERVTITCKASQDINSYLSWFQQKPGKSPKTLIYRANRLVDGVPSRFSGSGSGQDYSLTISSLEYEDMGIYYCLQYDEFPYTFGGGTKLEIKGLAVSTISSFFPPGYQIYIWAPLAGTCGVLLLSLVITLYCKRGRKKLLYIFKQPFMRPVQTTQEEDGCSCRFPEEEEGGCELRVKFSRSADAPAYQQGQNQLYNELNLGRREEYDVLDKRRGRDPEMGGKPRRKNPQEGLYNELQKDKMAEAYSEIGMKGERRRGKGHDGLYQGLSTATKDTYDALHMQALPPR
Question: B5 was tested. Which “degranulation … (primary screening)” value did it give?
Answer: ≥ 20%

B6: H10-v5 scCAR (other)
chain: EVKLVESGGGLVKPGGSLKLSCAASGFTFSSYAMSWVRQTPEKRLEWVASISTGASAYFPDSVKGRFTISRDNARNILYLQMSSLRSEDTAMYYCARITTSTWYFDVWGAGTTVTVSSGGGGSGGGGSGGGGSDIKMTQSPSSMYASLGERVTITCKASQDINSYLSWFQQKPGKSPKTLIYRANRLVDGVPSRFSGSGSGQDYSLTISSLEYEDMGIYYCLQYDEFPYTFGGGTKLEIKEPKSPDKTHTCPPCPAPPVAGPSVFLFPPKPKDTLMIARTPEVTCVVVDVSHEDPEVKFNWYVDGVEVHNAKTKPREEQYNSTYRVVSVLTVLHQDWLNGKEYKCKVSNKALPAPIEKTISKAKGQPREPQVYTLPPSRDELTKNQVSLTCLVKGFYPSDIAVEWESNGQPENNYKTTPPVLDSDGSFFLYSKLTVDKSRWQQGNVFSCSVMHEALHNHYTQKSLSLSPGKIYIWAPLAGTCGVLLLSLVITLYCKRGRKKLLYIFKQPFMRPVQTTQEEDGCSCRFPEEEEGGCELRVKFSRSADAPAYQQGQNQLYNELNLGRREEYDVLDKRRGRDPEMGGKPRRKNPQEGLYNELQKDKMAEAYSEIGMKGERRRGKGHDGLYQGLSTATKDTYDALHMQALPPR
Question: With B6 as the binder, how does the “degranulation … (primary screening)” value read?
Answer: ≥ 20%
